Reference: the nanobody polyreactivity screen of Harvey et al. (2022)

Assay: yeast display, Sf9 membrane polyspecificity reagent, FACS + sequencing; frameworks hold sequencing errors
Summary of the method: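 Polyreactivity labels are assigned by the sorting gate from which each nanobody was recovered. The gates were low and high (top ~1%), set on anti-HA fluorescence for expression and streptavidin fluorescence for reagent binding. Before sorting, galactose-induced (36–48 hours) yeast display cells were stained for 1 hour at 4 °C with 10% biotinylated, detergent-solubilized Sf9 membrane reagent.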

Row | Sequence | polyreactivity (PSR sort gate)
1 | QVQLVESGGGLVQAGGRLRLSCAASGSIFLHNAMGWYRQAPGKERELVAAISGTGGRTYYADSVKGRFTISRDNAKNTVYLQMNSLKPEDTAVYYCAVVFYHRHSYYWGQGTQVTVSS | high polyreactivity
2 | QVQLVESGGGLVQAGGRLRLSCAASGSIFNRYAMGWYRQAPGKERELVAAISSTGSTYYADSVKGRFTISRDNAKNTVYLQMNSLKPEDTAVYYCNADATHDLLRVDTYEYWGQGTQVTVSS | low polyreactivity
3 | QVQLVESGGGLVQAGGRLRLSCAASGSIFQSYALAWYRQAPGKERELVAVITGGGGSTYYADSVKARFTISRDNAKNTVYLQMNSLKPEDTAVYYCNADFPSFGVIYSTRKDDSWGQGTQVTVSS | low polyreactivity
4 | QVQLVESGGGLVQAGGRLRLSCAASGSIFSKNVMGWYRQAPGKERELVAAISIGGRTYYADSVKGRFTISRDNAKNTVSLQLNSLKPEDTAVYYCNTRFAKRATVGRYDYWGQGTQVTVSS | high polyreactivity
5 | QVQLVESGGGLVQAGGRLRLSCAASGSIFYRNAMGWYRQAPGKERELVAAIRYSGDNTYYADSVKGRFTISRDNAKNTVYLQMNSLKPEDTAVYYCAADFPDYEYWGQGTQVTVSS | high polyreactivity
6 | QVQLVESGGGLVQAGGRLRLSCAASGSIFYSNAMGWYRQAPGKERELVARITWSGGSTYYADSVKGRFTISRDNAKNTVYLQMNSLKPEDTAVYYCNKVIFRYFTTRPTRTYEYWGQGTQVTVSS | low polyreactivity
7 | QVQLVESGGGLVQAGGRLRLSCAASGSIFYYYAMGWYRQAPGTERELVAAISRGGNTYYADSVKGRFTNSRDNAKNTVYLQMNSLKPEDTAVYYCNARPPNKRYKYGYWGQGTQVTVSS | high polyreactivity
8 | QVQLVESGGGLVQAGGRLRLSCAASGSILGEYAMGLNRQANGKERELVAAISVGGCSTYYADSVKGRFTISRDNAKNTVYLQMNSLKPVDTAVYYCSAYDYQSEMYYWGQGTQVTVSS | high polyreactivity
9 | QVQLVESGGGLVQAGGRLRLSCAASGSSFVAYTMGWYRQAPGKERELVAAISRGGSTNYADSVKGRFTISRDNAKNTVYLQMNSLKPEDTAVYYCAAKVWDGQLLYYWGQGTQVTVSS | low polyreactivity
10 | QVQLVESGGGLVQAGGRLRLSCAASGSTFAWSAMGWYRQAPGKERELVAGIWNTGRTYYADSVKGRFTISRDNAKNTVYLQMNSLKPEDTAVYYCAALYNSPNVTYYYWGQGTQVTVSS | high polyreactivity
11 | QVQLVESGGGLVQAGGRLRLSCAASGSTFKIYAMGWYRQAPGKERELVARITGRGGSTYYADSVKGRFTISRDNAKNTVYLQLNSLKPEDSAVYYCAARVYTYYYDLHKRFYWGHGTQVTVSS | high polyreactivity
12 | QVQLVESGGGLVQAGGRLRLSCAASGSTIGKYVMGLYRQAPGKERELVAAITNIAGSTYYADSVKGRFTISRDTAKNTVYVQLNSLNPEDTAVYYCAADIEEYYGFDDYDYSYNDYDYWGQGTQVTVSS | high polyreactivity
13 | QVQLVESGGGLVQAGGRLRLSCAASGSTIGYYTMGWYRQAPGKERELVAAISWSGDSTYYADSVKGRFTISRDNAKNTVYLQMNSLKPEDTAVYYCAKVHYVRRGDSRYDYWGQGTQVTVSS | high polyreactivity
14 | QVQLVESGGGLVQAGGRLRLSCAASGSTIRTYARGWYRQAPGKERELVAAITNSDGSTYYADSVKGRFTISRDNAKNTVYLQMYSLKPEDTAVYYCAAYYYPLGYDYWGQGTQVTVSS | low polyreactivity
15 | QVQLVESGGGLVQAGGRLRLSCAASGSTLGRYAMGWYRQAPGKERELVASITWSDDSTYYADYVKGRFTISRDNAKNTVYLQMNSLKPEDTAVYYCAAAGNLYTYRFYYWGQGTQVTVSS | low polyreactivity
16 | QVQLVESGGGLVQAGGRLRLSCAASGSTVRYYAMGGYRQAPVKERELVAAITSGGRTYYADSVKGRFTISRDNAKNTVYLQMNSLKPEDTAVYYCNARRYGSGMDYWGQGTQVTVSS | low polyreactivity
17 | QVQLVESGGGLVQAGGRLRLSCAASGYIFDDKAMGWYRQAPGKERELVATNYADSVKGRFTISRDNAKNTVYLQMNSLKPEATAVYYCAAEAFYPWTSSRYIAYYYWGQGTQVTVSS | low polyreactivity
18 | QVQLVESGGGLVQAGGRLRLSCAASGYIFPKNAMGWYRQAPGKERELVAAITGSGGSTYYADSVKGRFTISRDNAKNTVYLQMNSLKPEDTAVYYCAKRSWIEYDYWGQGTQVTVSS | low polyreactivity
19 | QVQLVESGGGLVQAGGRLRLSCAASGYTFKFNAMGWYRQAPGKETELVAGITRGGGTYADSVKGRFTISRDNAKNTVYLQMNSLKPDDTAVSYCASAWGAPSRFFSAFDYWGQGTQVTVSS | low polyreactivity
20 | QVQLVESGGGLVQAGGRLRLSCAASRRIFDYNDRGWYRQAPGKERELVAAINDDSRTNYADSVKGRFTISRDNAKNTVYLQMNSLKPEDTAVYYCNNVYGRSGIGFDYWGQGTQVTVSS | low polyreactivity
21 | QVQLVESGGGLVQAGGRLRLSCADSGLIIYYYAMGWYRQAPGKEREFVAAITSSGGSTSYADSVKGRFTISRDNAKNTVYLQMNSLKPEDTAVYYCAARSKSEGGYWGQCTQVTVSS | high polyreactivity
22 | QVQLVESGGGLVQAGGRLRLSCADSGRTYGSNAMGWYRQAPGKERELVAAISGGDTTNYADSVKGRFTISRDNAKNTVYLQMNSLKPEDTAVYYCATDLRPAYDYWGEGTQVTVSS | low polyreactivity

Row | Sequence | polyreactivity (PSR sort gate)
23 | QVQLVESGGGLVQAGGRLRLSCASSGITFTFNAMGRYTQAPGKEMELVAAITWSGGSTFYADSVKGRFTISRDNAKNSVYLQMNSLIPEDTAVYYCARDTELYVRWLDYWGQGTQVTVSS | low polyreactivity
24 | QVQLVESGGGLVQAGGRLRLSCPPSGVTFTRNAMGWYRQAPGKERELVAAISSSAGSTSYADSVKGRLTISRDNAKNTVYLQMNSLKPEDTAVYYCATEGSYYSWVGKVGYRYQYHYWGHGTQVTVSS | high polyreactivity
25 | QVQLVESGGGLVQAGGRLRLSCSASGIILPKYTMGGYRQAPGKERELVAAITRSGGSTYYADSVKGRFTISRDNAKNTVYLHMISMKPEDTAVYYCAAERASFRYQDYYIYDYWGQGTEVTVSS | high polyreactivity
26 | QVQLVESGGGLVQAGGRLRLSCSASGSIFVTYDMGWYRQAPGKERELVAGISGSGSTNYADSVKGRFTISRDNAKNTVYLQMNSLKPEDTAVYYCAAEYEYLWSQYLTDYGYDYWGQGTQVTVSS | low polyreactivity
27 | QVQLVESGGGLVQAGGRLRLSCSASGSTFYPNAMGWYRQAPGKERELGAAISWSGGSTYYADSVKGRFTISRDNAKKTVDLQMNSLKPEDTAVYYCAAYYYGVRKYDYWGQGTQVTVSS | high polyreactivity
28 | QVQLVESGGGLVQAGGRLRLTCAASGSIFEGYAMGWYRQAPGKERELGARITSDDDSTYYADSVKGRFTISRDNAKNSVYLQMKSLKPEDTAVYYCNAVYYWTSLAMDSWGQGTQVTVSS | low polyreactivity
29 | QVQLVESGGGLVQAGGRLRLTCAPSGTIIYQYAMGFDRHAPGKERELVAASSTTGGPTYYADSVKGRFTISRDNAKKTVYLQMNSLKPEDTAVYYCAAEKYYGYDYWGQGTQVTVSS | high polyreactivity
30 | QVQLVESGGGLVQAGGRLRVSCATSGRTFGKYAMGWYRQAPGKERELVATISRSGGSTYYADSVKGRFTISRDNAKNTVYLQMNSLNPVDNAVYYCNAVTSRYIWPPGLDRYHYWGQGTQVTVSS | high polyreactivity
31 | QVQLVESGGGLVQAGGRLSLICAASGSIFPINAMGWYRQAPGKERELVADITSGGSTNYADSVKGRFTISRDNAKNTVYLQMNSLKPEDTAVYYCAADWRYWRWAFDYWGQGTQVTVSS | high polyreactivity
32 | QVQLVESGGGLVQAGGSHGLSCAASGRTSEKNPMGWYRQAPGIERELVAGISWRGGSTYYADSVKGRFTISRDNAKNTVYLQMNSLKPEDTAFYYCARSGAFSGLDDSWGQGTQVTVSS | low polyreactivity
33 | QVQLVESGGGLVQAGGSHRFSCGASGSTSTYYAMGCYRQAPGTERELVAAISSGGSTNYADSVKGRFTISRDNAKNTVYLKMNSLKPEETAVYYCATDSGDGEGDYWGQGTQVTVSS | low polyreactivity
34 | QVQLVESGGGLVQAGGSHRLSCAASARIFYLYAMGWYRQAPGKERELVAAISRSGSSTYYADSVKGRFTISRDNPKNTVYLEMNSLKPEDTAVYYFADLRYRPVHQDHYDYWGQGTQVTVSS | high polyreactivity
35 | QVQLVESGGGLVQAGGSHRLSCAASGFILAYYAMGWYRQAPGKERELVASINRSGGSTYYADSVKGRFTISRDNAKNTVYFQMNSLKPEDTAVHYCAHTNRGDGQWWYRYYYWGQGTQVTVSS | high polyreactivity
36 | QVQLVESGGGLVQAGGSHRLSCAASGGTFNTNAMGWYRQAPGKERELVATIRGGVITTYADSVKGRFTISRDNAKNTVYLQMNSLKPEDTAVYYFNKDNAPYAVSSIFGARDYWGQGTQVTVSS | low polyreactivity
37 | QVQLVESGGGLVQAGGSHRLSCAASGIIFPWYVMGWYRQAPGKERELVAAITQSGGSTFYADSLKGRFTISRDNAKNTVYLQMNCLKPEDTAVYYCHTEDFFKFPEMDSWGQGTQLTVSS | low polyreactivity
38 | QVQLVESGGGLVQAGGSHRLSCAASGIIFSGNAMGWYRQAPGKERELVAAITRGGRTYYADSVKGRFTISRDNAKNTVYLQMNSLKPEDTAVYYCNKRYRYKYDYWGQGTQVTVSS | high polyreactivity
39 | QVQLVESGGGLVQAGGSHRLSCAASGITFYGNAMGWYRQAPGKERELVAGITSGGNTYYADSVKGRFTISRDNAKNTVYLQMNSLKPEDTAVYYCAAGYFSYRSYYYYRYDYWGQGTQVTVSS | high polyreactivity
40 | QVQLVESGGGLVQAGGSHRLSCAASGQTVYYYPMGWYRQAPGKEREVVASISTGGNTYYADSVKGRFTISRDNAKNTVYLQMNSLKPEDTAVYYCAAGLYSWSGFASYNSAYGYWGQGTQVTVSS | low polyreactivity
41 | QVQLVESGGGLVQAGGSHRLSCAASGRIFAYNAMGWYRQAPGKERELVAAISSGGNTYYADSVKGRFTISRDNAKNTVYLQMNSLTPEDTAVYYCNAGVGWHRYYSNYDYWGQGTQVTVSS | low polyreactivity
42 | QVQLVESGGGLVQAGGSHRLSCAASGRIFGCYTMGWYRQAPAKERELVAGITRRGGRTYYADSVKGRFTISRDTAKYTVYLQMNSLKPEDTAVYYCAVRSGVNFYYWGHGTQVTVSS | high polyreactivity
43 | QVQLVESGGGLVQAGGSHRLSCAASGRIFQRNTMGWYRQAPGKERELVARINYSGGSTYYADSVKGRFTISRDNAKNTVYLQMNSLKPEDTAVYYCAARVWTWSIYYRAGLSSYDYWGQGTQVTVSS | low polyreactivity
